As usually defined, the Kd is the constant that tells how readily two partners part at equilibrium.

Where two headings read alike, the source gives them in different places.

The target in assay [1] is T1, HAUSP TRAF domain HAUSP^62-205 (Homo sapiens, UniProt Q93009).
T1 construct: HAUSP^62-205, and HAUSP^62-560 were fused to a hexahistidine-tag2 and expressed in E. coli BL21 (DE3) RIPL cells; hexahistidine (cleaved yes); made in house; host or cells: E. coli BL21 (DE3) RIPL
The assay can be described thus: biochemical. Type of assay: binding. The following applies: for n: Table 1a, ITC fit parameter n, 150 mM NaCl, 10 mM HEPES (pH 7.0). How it is done:
FIG. 5. Typical isothermal titration calorimetric measurements of the interactions between the HAUSP TRAF domain and the vIRF4 protein derivatives or other peptides. Purified proteins and synthesized peptides were reconstituted in 150 mM NaCl and 10 mM HEPES (pH 7.0). The calorimetric assays were performed using a VPITC system. All experiments were carried out with a stirring speed of 300 rpm at 20° C., and the thermal power was recorded every 10 s. Data were analyzed using the ORIGIN software package (version 7.0). […] Each titration against the HAUSP TRAF domain is indicated in each panel.
Purified proteins and synthesized peptides (Peptron Inc., Deajeon, Korea) were reconstituted in 150 mM NaCl and 10 mM HEPES (pH 7.0). The calorimetric assays were performed using a VP-ITC system (MicroCal Inc., Northampton, Mass.). Samples were degassed by vacuum aspiration for 15 min prior to loading. All experiments were carried out with a stirring speed of 300 rpm at 20° C., and the thermal power was recorded every 10 s. Data were analyzed using the ORIGIN software package (version 7.0) supplied with the instrument. […]

Assay [2] concerns the target T1, HAUSP TRAF domain HAUSP^62-205. Kind of assay: Size exclusion chromatography, complex formation in 5-fold excess of MDM2^137-152. The assay is classed as binding. The following applies: in the presence of a 5-fold molar excess of MDM2 peptide.

T1 sequence (Q93009 62-205): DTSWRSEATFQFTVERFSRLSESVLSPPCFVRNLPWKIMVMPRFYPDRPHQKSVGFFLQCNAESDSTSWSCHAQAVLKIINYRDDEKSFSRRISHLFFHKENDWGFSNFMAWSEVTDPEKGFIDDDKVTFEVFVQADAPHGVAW

B1: vIRF4^153-216: vIRF4 aa 153-216 fragment, hexahistidine-tagged, expressed in E. coli (protein)
chain: SDTREQSYEEAGAAAPAPPKAPSGLRGRPRKSNRYYNVGDITTEQKAACSVWIPVNEGASTSGM
modifications: left off: small tags and cut ends
notes: vIRF4 aa 153-216 fragment, hexahistidine-tagged, expressed in E. coli
Turning to B1, the Kd in assay [1] (ITC, 20° C., read-out: Kd) turned out to be 540 nM. The n in assay [1] (20° C.) was 0.82 ± 0.09. In addition, the “complex formation with the HAUSP TRAF domain” value in assay [2] was “formed a stable complex”.

B2: vIRF4^153-256: vIRF4 aa 153-256 region, hexahistidine-tagged, expressed in E. coli (protein)
chain: SDTREQSYEEAGAAAPAPPKAPSGLRGRPRKSNRYYNVGDITTEQKAACSVWIPVNEGASTSGMGSSGTRQVTQASSFTWRVPGDPPAPSTLTGPSDPHSSGAG
modifications: left off: small tags and cut ends
notes: vIRF4 aa 153-256 region, hexahistidine-tagged, expressed in E. coli
Take B2: the Kd in assay [1] (HAUSP^62-205 and vIRF4^153-256, ITC, read-out: dissociation constant (Kd)) turned out to be 76 nM; in assay [1] (ITC, 20° C., read-out: Kd), 76 nM. Further, the n in assay [1] (20° C.) is 1.13 ± 0.18.

Values taken from patent publication US20130330358A1, “CRYSTAL STRUCTURE AND PEPTIDE INHIBITORS OF HAUSP DEUBIQUITINASE” (priority 2011, published 2013).
